Read-outs that look alike come from different tables or passages of the source.

The nature of this series: Biodistribution of [177Lu]Lu-NeoB in healthy Balb/c mice, single i.v. injection, organ uptake by gamma counter. In kind it is in vivo. As to conditions: male, mouse, pancreas, iv, total radioactivity, 1 h p.i., read-out: Pancreatic uptake. On the procedure:
Both the biodistribution and the radiotoxicity of [^177Lu]Lu-NeoB were studied after administration of 3 different dosages of the radioligand: 40 MBq/400 pmol [^177Lu]Lu-NeoB, 80 MBq/800 pmol [^177Lu]Lu-NeoB, and 120 MBq/1200 pmol [^177Lu]Lu-NeoB. The different dosages were acquired by diluting the stock [^177Lu]Lu-NeoB solution with PBS + kolliphor HS 15 (1 mg/mL). [^177Lu]Lu-NeoB was administered intravenously (tail) to conscious animals in a total volume of 200 µL.
Each dosage of [^177Lu]Lu-NeoB was injected in N = 15 healthy male animals. At 5 different time points post injection (p.i.) (t = 1, 4, 24, 48, and 96 h), 3 animals per dosage group were sacrificed, after which blood and organs were collected and measured to determine radioactivity uptake.
Since in the radiotoxicity studies animals received 3 injections of the radioligand at 1-week intervals, an additional group of 3 male animals were injected twice with 120 MBq/1200 pmol [^177Lu]Lu-NeoB at a 7 days (168 h) interval. […] In addition, to determine the amount of radioactivity remaining in the blood and organs right before a second injection, 3 additional male animals were injected with 40 MBq/400 pmol [^177Lu]Lu-NeoB and the biodistribution was determined at t = 168 h. […]
In the biodistribution study, the adrenal glands, brain, intestines, heart, kidneys, liver, lungs, mammary fat pad, pancreas, muscle, spleen, stomach, prostate gland (M), testes (M), ovaries (F), and urinary bladder were collected, weighed, and measured for radioactivity uptake using a gamma counter (1480 WIZARD automatic γ counter; PerkinElmer). To calculate the percentage injected activity (%IA), a vial containing 200 µL of a 1:1000 dilution of the injected [^177Lu]Lu-NeoB solutions was also measured in the gamma counter. The %IA of all organs and tumor was corrected for the percentage of radioactivity left measured in the tail (injection site).

On to `CC(C)CC(CC(C)C)NC(=O)[C@H](Cc1cnc[nH]1)NC(=O)CNC(=O)[C@@H](NC(=O)[C@H](C)NC(=O)[C@H](Cc1c[nH]c2ccccc12)NC(=O)[C@H](CCC(N)=O)NC(=O)[C@@H](Cc1ccccc1)NC(=O)COCC(=O)Nc1ccc(CNC(=O)CN2CCN(CC(=O)O)CCN(CC(=O)O)CCN(CC(=O)O)CC2)cc1)C(C)C` [[^177Lu]Lu-NeoB, metal not drawn], for which the tissue uptake at 1 h runs as follows: (40 MBq/400 pmol) 8.27 ± 0.8 %ID/g; (80 MBq/800 pmol) 4.05 ± 0.4 %ID/g; (120 MBq/1200 pmol) 1.79 ± 0.2 %ID/g.

These data come from paper PMC9605926, “Safety of [^177Lu]Lu-NeoB treatment: a preclinical study characterizing absorbed dose and acute, early, and late organ toxicity” (European Journal of Nuclear Medicine and Molecular Imaging, 2022).
